Laboratory results published in publication PMC8825603 (Theranostics, 2022).

Key:
Assay in all cases: cellular equilibrium binding of GpL (luciferase)-tagged antibody variants; HEK293 cells transiently transfected with a CD40, 41BB or PD-L1 expression plasmid; increasing concentrations of GpL-tagged antibody variants (cell culture supernatants); 37 °C, 1.5 h; washed three times with ice cold PBS; binding to empty vector cells subtracted; one site specific binding fit
Settings in all cases: partners not purified
CD40 = molecular target: T1, CD40 (Homo sapiens (species ), UniProt P25942)
T1 construct: CD40, expressed on HEK293 cells from an expression plasmid (gift of Pascal Schneider); also called cluster of differentiation 40; source: HEK293, transiently transfected with a CD40 expression plasmid, on cells
T1 sequence (P25942 21-277): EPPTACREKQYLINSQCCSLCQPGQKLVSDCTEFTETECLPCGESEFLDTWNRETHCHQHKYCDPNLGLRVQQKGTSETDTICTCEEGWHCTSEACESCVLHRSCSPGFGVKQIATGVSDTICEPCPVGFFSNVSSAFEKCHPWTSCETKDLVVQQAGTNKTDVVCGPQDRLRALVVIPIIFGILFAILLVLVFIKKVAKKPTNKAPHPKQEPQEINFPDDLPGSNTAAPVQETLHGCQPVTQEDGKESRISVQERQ

41BB = molecular target: T2, 41BB (Homo sapiens (species ), UniProt Q07011)
T2 construct: 41BB, expressed on HEK293 cells from an expression plasmid (gift of Pascal Schneider); source: HEK293, transiently transfected with a 41BB expression plasmid, on cells
T2 sequence (Q07011 24-255): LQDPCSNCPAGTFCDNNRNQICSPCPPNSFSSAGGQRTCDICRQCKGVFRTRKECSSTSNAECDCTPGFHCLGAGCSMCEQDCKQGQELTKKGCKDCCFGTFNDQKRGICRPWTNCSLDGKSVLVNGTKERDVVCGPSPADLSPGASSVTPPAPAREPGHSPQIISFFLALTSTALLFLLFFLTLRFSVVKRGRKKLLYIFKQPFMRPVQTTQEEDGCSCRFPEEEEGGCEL

PDL1 [1] = molecular target: T3, PDL1 (UniProt Q9NZQ7)
T3 construct: PDL1, expressed on HEK293 cells from the expression plasmid pCMV6-XL4 (Origene Technologies); also called PD1 Ligand 1; PD1L; source: HEK293, transiently transfected with a PDL1 expression plasmid (pCMV6-XL4, Origene), on cells
T3 sequence (Q9NZQ7 19-290): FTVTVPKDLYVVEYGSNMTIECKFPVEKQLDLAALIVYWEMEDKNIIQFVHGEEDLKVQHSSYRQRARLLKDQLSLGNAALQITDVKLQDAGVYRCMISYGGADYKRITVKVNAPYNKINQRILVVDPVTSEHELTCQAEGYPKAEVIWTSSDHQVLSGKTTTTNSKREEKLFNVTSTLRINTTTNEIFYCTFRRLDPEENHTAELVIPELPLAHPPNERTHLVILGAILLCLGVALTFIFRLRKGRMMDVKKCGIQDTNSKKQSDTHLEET

PDL1 [2] = molecular target: T3, PDL1; remark: listed apart in the source

| Binder | binding result (PDL1 [1]) | binding result (PDL1 [2]) | further results |
| --- | --- | --- | --- |
| αPDL1-N297A-GpL (antibody, V domains shown, VH of the anti-PDL1 antibody Avelumab; linker L6; constant heavy chain of human IgG1, aa 145-476 of GenBank AAA02914.1, with N297A (the footnote prints 'A to N mutation at position 327'); VL of the anti-PDL1 antibody Avelumab; linker L4; constant light chain, aa 105-214 of GenBank BAA97671.1; numbers count on: GenBank BAA97671.1; IgG1(N297A); also called αPDL1-IgG1(N297A); parental anti-PDL1 …) VH: EVQLLESGGGLVQPGGSLRLSCAASGFTFSSYIMMWVRQAPGKGLEWVSSIYPSGGITFYADTVKGRFTISRDNSKNTLYLQMNSLRAEDTAVYYCARIKLGTVTTVDYWGQGTLVTVSS VL: QSALTQPASVSGSPGQSITISCTGTSSDVGGYNYVSWYQQHPGKAPKLMIYDVSNRPSGVSNRFSGSKSGNTASLTISGLQAEDEADYYCSSYTSSSTRVFGTGTKVTVL |  |  | binding result (CD40): no binding; binding result (41BB): no binding |
| αCD40-Fab2-GpL (Fab, V domains shown, VH of the anti-CD40 antibody C; linker L6; CH1: constant heavy chain of human IgG1, aa 145-260 of GenBank AAA02914.1; numbers count on: GenBank AAA02914.1; VL of the anti-CD40 antibody C; linker L4; constant light chain, aa 105-214 of GenBank BAA97671.1; numbers count on: GenBank BAA97671.1; Bivalent Fab2 format; source: HEK293, transiently transfected (PEI), cell culture supernatant; copies: 2 + …) VH: QVQLVQSGAEVKKPGASVKVSCTASGFNIKDYYVHWVKQAPGQGLEWMGRIDPEDGDSKYAPKFQGKATMTADTSTSTVYMELSSLRSEDTAVYYCTTSYYVGTYGYWGQGTLVTVSS VL: DIQMTQSPSSLSASVGDRVTITCSASSSVSYMLWFQQKPGKAPKLLIYSTSNLASGVPSRFSGSGSGTDFTLTISSLQPEDFATYYCQQRTFYPYTFGGGTKVEIK | no binding |  |  |

Further lines, with some results ahead:

| binding result (PDL1 [1]) | binding result (PDL1 [2]) | Binder | further results |
| --- | --- | --- | --- |
| no binding |  | αCD40-N297A-GpL (antibody, V domains shown, VH of the anti-CD40 antibody C; linker L6; constant heavy chain of human IgG1, aa 145-476 of GenBank AAA02914.1, with N297A (the footnote prints 'A to N mutation at position 327'); VL of the anti-CD40 antibody C; linker L4; constant light chain, aa 105-214 of GenBank BAA97671.1; numbers count on: GenBank BAA97671.1; IgG1(N297A); also called αCD40-IgG1(N297A); source: HEK293, transiently …) VH: QVQLVQSGAEVKKPGASVKVSCTASGFNIKDYYVHWVKQAPGQGLEWMGRIDPEDGDSKYAPKFQGKATMTADTSTSTVYMELSSLRSEDTAVYYCTTSYYVGTYGYWGQGTLVTVSS VL: DIQMTQSPSSLSASVGDRVTITCSASSSVSYMLWFQQKPGKAPKLLIYSTSNLASGVPSRFSGSGSGTDFTLTISSLQPEDFATYYCQQRTFYPYTFGGGTKVEIK |  |
|  | no binding | α41BB-Fab2-GpL (Fab, V domains shown, VH of the anti-41BB antibody HBBK4; linker L6; CH1: constant heavy chain of human IgG1, aa 145-260 of GenBank AAA02914.1; numbers count on: GenBank AAA02914.1; VL of the anti-41BB antibody HBBK4; linker L4; constant light chain, aa 105-214 of GenBank BAA97671.1; numbers count on: GenBank BAA97671.1; Bivalent Fab2 format; source: HEK293, transiently transfected (PEI), cell culture supernatant; …) VH: QVQLQQSGAEVIKPGASVKLSCKASGYTFSSYWMHWVRQAPGQGLEWIGEINPGNGHTNYNEKFKSRATLTGDTSTSTVYMELSSLRSEDTAVYYCARSFTTARAFAYWGQGTLVTVSS VL: DIVMTQSPAFLSVTPGEKVTITCRASQTISDYLHWYQQKPDQAPKLLIKYASQSISGIPSRFSGSGSGTDFTFTISSLEAEDAATYYCQDGHSFPPTFGQGTKLEIK |  |
|  | no binding | α41BB-N297A-GpL (antibody, V domains shown, VH of the anti-41BB antibody HBBK4; linker L6; constant heavy chain of human IgG1, aa 145-476 of GenBank AAA02914.1, with N297A (the footnote prints 'A to N mutation at position 327'); VL of the anti-41BB antibody HBBK4; linker L4; constant light chain, aa 105-214 of GenBank BAA97671.1; numbers count on: GenBank BAA97671.1; IgG1(N297A); also called α41BB-IgG1(N297A); source: HEK293, transiently …) VH: QVQLQQSGAEVIKPGASVKLSCKASGYTFSSYWMHWVRQAPGQGLEWIGEINPGNGHTNYNEKFKSRATLTGDTSTSTVYMELSSLRSEDTAVYYCARSFTTARAFAYWGQGTLVTVSS VL: DIVMTQSPAFLSVTPGEKVTITCRASQTISDYLHWYQQKPDQAPKLLIKYASQSISGIPSRFSGSGSGTDFTFTISSLEAEDAATYYCQDGHSFPPTFGQGTKLEIK |  |
